Assay results from paper PMC6420597, “The MurG glycosyltransferase provides an oligomeric scaffold for the cytoplasmic steps of peptidoglycan biosynthesis in the human pathogen Bordetella pertussis” (Scientific Reports, 2019).

Assays:
[1] = biological target: MurE-MurF bifunctional fusion protein from Bordetella pertussis, His-tagged (Bordetella pertussis (strain ATCC 9797/DSM No 5571))
[2] = biological target: MurE-MurF bifunctional fusion protein from Bordetella pertussis, His-tagged (Bordetella pertussis (strain ATCC 9797/DSM No 5571)); assay: AUC; sedimentation velocity, dimer pool of MurE-MurF at 40, 10 and 2.5 μM, 42,000 rpm, 20 °C
[3] = biological target: MurE-MurF bifunctional fusion protein from Bordetella pertussis, His-tagged (Bordetella pertussis (strain ATCC 9797/DSM No 5571)); assay: SEC-MALS; larger SEC form (dimer pool) of MurE-MurF; 25 mM HEPES pH 7.5, 300 mM NaCl, 10 mM MgCl2, 5% glycerol; room temperature
[4] = biological target: the molecule itself; assay: AUC; sedimentation velocity, MurG 2 mg/ml in buffer with DM (1.2 x CMC), 42,000 rpm, 20 °C
[5] = biological target: FITC-labelled MurE-MurF fusion protein from Bordetella pertussis (Bordetella pertussis (strain ATCC 9797/DSM No 5571)); assay: MST; FITC-labelled MurE-MurF at a fixed concentration, MurG purified in detergent titrated; 25 mM HEPES pH 7.5, 150 mM NaCl, 10 mM MgCl2, 5% glycerol, 0.17% w/v DM; 22 °C; triplicate
[6] = biological target: FITC-labelled MurE-MurF fusion protein from Bordetella pertussis (Bordetella pertussis (strain ATCC 9797/DSM No 5571)); assay: MST; FITC-labelled MurE-MurF at a fixed concentration, oligomeric MurG (purified without detergent) titrated from 1 nM to 37 μM; 25 mM HEPES pH 7.5, 150 mM NaCl, 10 mM MgCl2, 5% glycerol, no detergent; apparent KD, no clear plateau

| Molecule | specific activity of the MurF-catalysed reaction (D-Ala-D-Ala-adding) of the dimeric form of MurE-MurF; the monomeric form gave 14.1 µmol/min/mg [1] [µmol/min/mg] | stoichiometry N [2] | stoichiometry N [3] | stoichiometry N [4] | Kd [5] [nM] | Kd [6] [nM] |
| --- | --- | --- | --- | --- | --- | --- |
| MurE-MurF bifunctional fusion protein from Bordetella pertussis, His-tagged (enzyme) | 7.5 | 2 | 2 |  |  |  |
| MurG glycosyltransferase from Bordetella pertussis, N-terminal Strep-tagged (enzyme, UniProt Q7VUQ3 1-357, looked up, MurG, Bordetella pertussis strain ATCC 9797/DSM No 5571; printed as a 357-residue protein; the murG gene was cloned into a modified pET30b; The Strep-tag is TEV-cleavable, but no cleavage is described; It is not clear whether the 357 residues include the tag; The oligomeric state depends on detergent: dimer in DDM/DM, tetramers and higher without; The discussion gives a mass of 50 kDa; also …) MSAPTILIMAGGTGGHIMPGLAVAEVLRERGWRVLWLGNPDKMEGRLVPPRGIELVPLRFQGVRGRGAAALLKLPFLLARACAQAWRRLADIRPDVVLGMGGYVAFPGGVMAALRRTPLVVHEQNAVAGTANRWLARLARRVLSGFPGVLPRGEALGNPVRADLCALPEPAERYAGRSGALRVLVVGGSLGAHALNTTVPQALALLPEQARPQVVHQAGEQHLPALQQAYAQAGVQADCRAFIDDMADAMAQADLLICRAGAMTVSEVAAAGVAALFVPFPHAIDDHQTANARFLSDAQAAWLQPQASLTPQWLAQWLGQRTRQELQAVAGRARTHALPRAAAHIADVCEQAARRAS |  |  |  | 2 | 570 | 970 |
